In the test the target is T1, Myc-tagged full-length (FL) PARP1 (UniProt P09874 1-1014).
T1 construct: also called Myc-PARP1
Kind of test: pull-down; GST, GST-USP1 or GST-USP1 C90S coupled to glutathione-Sepharose beads, incubated with purified Myc-PARP1; 50 mM Tris-HCl, 200 mM NaCl, 1 mM EDTA, 1% NP-40, 1 mM DTT, 10 mM MgCl2, pH 8.0; 4 °C, 4 hours. Particulars: both partners purified.

Residue numbers refer to the chain shown, from its start.

T1 sequence (P09874 whole entry): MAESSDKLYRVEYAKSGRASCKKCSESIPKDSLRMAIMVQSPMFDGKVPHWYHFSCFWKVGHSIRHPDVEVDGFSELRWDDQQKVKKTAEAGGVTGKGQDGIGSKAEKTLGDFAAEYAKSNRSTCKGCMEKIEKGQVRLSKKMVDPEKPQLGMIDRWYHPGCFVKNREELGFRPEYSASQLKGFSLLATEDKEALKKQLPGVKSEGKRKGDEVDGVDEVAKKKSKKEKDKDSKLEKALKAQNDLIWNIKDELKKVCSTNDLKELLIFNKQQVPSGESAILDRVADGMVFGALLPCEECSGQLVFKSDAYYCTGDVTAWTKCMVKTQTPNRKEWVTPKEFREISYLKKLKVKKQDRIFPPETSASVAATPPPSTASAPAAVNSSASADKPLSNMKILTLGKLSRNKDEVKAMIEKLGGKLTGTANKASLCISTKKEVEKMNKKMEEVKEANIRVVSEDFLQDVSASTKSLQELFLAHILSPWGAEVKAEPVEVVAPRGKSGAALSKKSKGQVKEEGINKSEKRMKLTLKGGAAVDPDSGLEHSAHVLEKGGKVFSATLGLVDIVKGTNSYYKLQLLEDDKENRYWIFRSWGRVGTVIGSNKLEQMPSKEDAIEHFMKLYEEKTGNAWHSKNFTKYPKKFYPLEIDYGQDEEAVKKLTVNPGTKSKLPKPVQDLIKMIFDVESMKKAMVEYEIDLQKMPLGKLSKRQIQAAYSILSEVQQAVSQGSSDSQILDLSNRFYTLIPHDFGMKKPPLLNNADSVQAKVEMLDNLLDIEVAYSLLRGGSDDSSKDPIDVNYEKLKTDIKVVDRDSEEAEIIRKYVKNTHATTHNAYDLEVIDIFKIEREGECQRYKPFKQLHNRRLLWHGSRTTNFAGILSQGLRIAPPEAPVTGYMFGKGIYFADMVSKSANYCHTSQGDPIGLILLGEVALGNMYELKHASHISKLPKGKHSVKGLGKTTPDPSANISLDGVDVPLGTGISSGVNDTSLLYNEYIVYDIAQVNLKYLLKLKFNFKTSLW

B1: GST-USP1 (enzyme, UniProt O94782 1-785, looked up)
chain: MPGVIPSESNGLSRGSPSKKNRLSLKFFQKKETKRALDFTDSQENEEKASEYRASEIDQVVPAAQSSPINCEKRENLLPFVGLNNLGNTCYLNSILQVLYFCPGFKSGVKHLFNIISRKKEALKDEANQKDKGNCKEDSLASYELICSLQSLIISVEQLQASFLLNPEKYTDELATQPRRLLNTLRELNPMYEGYLQHDAQEVLQCILGNIQETCQLLKKEEVKNVAELPTKVEEIPHPKEEMNGINSIEMDSMRHSEDFKEKLPKGNGKRKSDTEFGNMKKKVKLSKEHQSLEENQRQTRSKRKATSDTLESPPKIIPKYISENESPRPSQKKSRVKINWLKSATKQPSILSKFCSLGKITTNQGVKGQSKENECDPEEDLGKCESDNTTNGCGLESPGNTVTPVNVNEVKPINKGEEQIGFELVEKLFQGQLVLRTRCLECESLTERREDFQDISVPVQEDELSKVEESSEISPEPKTEMKTLRWAISQFASVERIVGEDKYFCENCHHYTEAERSLLFDKMPEVITIHLKCFAASGLEFDCYGGGLSKINTPLLTPLKLSLEEWSTKPTNDSYGLFAVVMHSGITISSGHYTASVKVTDLNSLELDKGNFVVDQMCEIGKPEPLNEEEARGVVENYNDEEVSIRVGGNTQPSKVLNKKNVEAIGLLGGQKSKADYELYNKASNPDKVASTAFAENRNSETSDTTGTHESDRNKESSDQTGINISGFENKISYVVQSLKEYEGKWLLFDDSEVKVTEEKDFLNSLSPSTSPTSTPYLLFYKKL
notes: Coupled to glutathione-Sepharose beads in the pull-down; also called recombinant GST-USP1; source: E. coli BL21 (DE3), purified (GST-tag purification resin)
For the molecule B1, the binding result was “binds”.

B2: GST-USP1 C90S (enzyme, UniProt O94782 1-785, looked up)
chain: B1 chain with C90S
notes: Coupled to glutathione-Sepharose beads in the pull-down; source: E. coli BL21 (DE3), purified (GST-tag purification resin)
For B2, the binding result was “binds”.

(Values after paper PMC10567853, “USP1 promotes cholangiocarcinoma progression by deubiquitinating PARP1 to prevent its proteasomal degradation” (Cell Death & Disease, 2023).)
